From patent US20250388683A1 (VETOQUINOL, published 2025)
Read-outs that look alike come from different tables or passages of the source.

Columns and labels:
Test in all cases: cell-based or functional assay
[1] = target: T1, canine IL-31RA expressed on HEK-Blue STAT3 canine IL-31R reporter cells (with canine OSMR) (canine)
[2] = target: T1, canine IL-31RA expressed on HEK-Blue …; remark: listed apart in the source
[3] = target: T1, canine IL-31RA expressed on HEK-Blue …; remark: listed apart in the source
[4] = target: T1, canine IL-31RA expressed on HEK-Blue …; remark: listed apart in the source
[5] = target: T1, canine IL-31RA expressed on HEK-Blue …; remark: listed apart in the source
[6] = target: T1, canine IL-31RA expressed on HEK-Blue …; remark: listed apart in the source

Binder | Mean IC50 (nM) (n = 3), HEK-Blue cell-based SEAP assay [3] | other results
scFv-Fc-VTQ2201 (scFv-VTQ2201-HLλcap-GS18-Mouse IgG2A-LALAPG-Fc) (Fc fusion) scFv: EVQLQQSGAELVKPGASVKLSCTASGFNIKDSFIHWLKQRPEQGLEWIGRIDPANGNTEYDPNFQGKVTITADTSSNTAYLQLSSLTSEDTAVYYCARYYYGNSHFDAWGQGTTLTVSSGSTSGGGSGGGSGGGGSSRIVMNQTPKFLPISAGDRVIITCKASQSVTNDVTWYQQKPGQSPKVLIHYASNRYTGVPDRFTGSGYGTDFTFTISTVQAEDLAVYFCQQDYSSPFTFGSGTKLTVLGPRGPTIKPCPPCKCPAPNAAGGPSVFIFPPKIKDVLMISLSPIVTCVVVDVSEDDPDVQISWFVNNVEVHTAQTQTHREDYNSTLRVVSALPIQHQDWMSGKEFKCKVNNKDLGAPIERTISKPKGSVRAPQVYVLPPPEEEMTKKQVTLTCMVTDFMPEDIYVEWTNNGKTELNYKNTEPVLDSDGSYFMYSKLRVEKKNWVERNSYSCSVVHEGLHNHHTTKSFSRTPGK | – | IC50 (read off the curve); STAT3-SEAP reporter, canine IL-31 stimulation [1]: ~1 nM; IC50 ratio (IC50 candidate/IC50 VTQ2101) [2]: 1 ratio
8D3-VH-H/8D3-VL-Ev2 caninized antibody (antibody, V domains shown) VH: EVTLQESGPGLVKPSQTLSLTCVASGFSIKDSFIHWLRQRPGRGLEWIGRIDPAQGATEYDANFQGRISITADTAKNQASLQLSSMTTEDTAVYYCARYYYGASHFDAWGQGTLVTVSS VL: RIVMTQSPGSLAGSVGESVSINCKSSQSVTNDVTWYQQKPGEAPKVLIHYASQRYSGVPARFSGSGYGTDFTLTINNLQAEDVGDYFCQQDYASPFTFGQGTKLEIK | 0.59 nM | –
8D3-VH-518/8D3-VL-Ev2 caninized antibody (antibody, V domains shown) VH: VTLQESGPGLVKPSQTLSLTCVASGFSIKDSFIHWLRQRPGRGLEWIGYIDPLQGNTEYDPVFQGRLSITADTAKNQVSLQLSSMTTEDTAVYYCARYYYARSHFDAWGQGTLVTVSS VL: RIVMTQSPGSLAGSVGESVSINCKSSQSVTNDVTWYQQKPGEAPKVLIHYASQRYSGVPARFSGSGYGTDFTLTINNLQAEDVGDYFCQQDYASPFTFGQGTKLEIK | 0.57 nM | –
8D3-VH-Lv2/8D3-VL-Ev2 caninized antibody (antibody, V domains shown) VH: EVTLQESGPGLVKPSQTLSLTCVASGFSIKSSFIHWLRQRPGRGLEWIGRIDPLQGATEYNPVFQGRLSITADTAKNQVSLQLSSMTTEDTAVYYCARYHYAQSHFDAWGQGTLVTVSS VL: RIVMTQSPGSLAGSVGESVSINCKSSQSVTNDVTWYQQKPGEAPKVLIHYASQRYSGVPARFSGSGYGTDFTLTINNLQAEDVGDYFCQQDYASPFTFGQGTKLEIK | 0.38 nM | –
8D3-VH-L/8D3-VL-G caninized antibody (antibody, V domains shown) VH: EVTLQESGPGLVKPSQTLSLTCVASGFSIKSSFIHWLRQRPGRGLEWIGRIDPAFGATEYNPAFQGRFSITADTAKNQASLQLSSMTTEDSAVYYCARYHYAASHFDAWGQGTLVTVSS VL: RIVMTQSPGSLAGSVGESVSINCKSSQSVTNDLTWYQQKPGEAPKVLIHYASQRYPGVPARFSGSGYGTDFTLTINNLQAEDVGDYFCQQDYASPFTFGQGTKLEIK | 0.44 nM | –
8D3-VH-L/8D3-VL-Ev2 caninized antibody (antibody, V domains shown) VH: EVTLQESGPGLVKPSQTLSLTCVASGFSIKSSFIHWLRQRPGRGLEWIGRIDPAFGATEYNPAFQGRFSITADTAKNQASLQLSSMTTEDSAVYYCARYHYAASHFDAWGQGTLVTVSS VL: RIVMTQSPGSLAGSVGESVSINCKSSQSVTNDVTWYQQKPGEAPKVLIHYASQRYSGVPARFSGSGYGTDFTLTINNLQAEDVGDYFCQQDYASPFTFGQGTKLEIK | 0.41 nM | –
8D3-VH-518/8D3-VL-A caninized antibody (antibody, V domains shown) VH: VTLQESGPGLVKPSQTLSLTCVASGFSIKDSFIHWLRQRPGRGLEWIGYIDPLQGNTEYDPVFQGRLSITADTAKNQVSLQLSSMTTEDTAVYYCARYYYARSHFDAWGQGTLVTVSS VL: RIVMTQSPGSLAGSAGESVSINCKASQSVTNDVTWYQQKPGERPKVLIHYASNRYTGVPARFSGSGSGTDFTFTINNLQAEDVGDYFCQQDYSSPFTFGQGTKLEIK | 0.54 nM | –
8D3-VH-518H/8D3-VL-A caninized antibody (antibody, V domains shown) VH: EVTLQESGPGLVKPSQTLSLTCVASGFSIKSSFIHWLRQRPGRGLEWIGYIDPLQGGTEYNPVFQGRLSITADTAKNQVSLQLSSMTTEDTAVYYCARYHYATSHFDAWGQGTLVTVSS VL: RIVMTQSPGSLAGSAGESVSINCKASQSVTNDVTWYQQKPGERPKVLIHYASNRYTGVPARFSGSGSGTDFTFTINNLQAEDVGDYFCQQDYSSPFTFGQGTKLEIK | 0.48 nM | –
8D3-VH-Lv2/8D3-VL-E caninized antibody (antibody, V domains shown) VH: EVTLQESGPGLVKPSQTLSLTCVASGFSIKSSFIHWLRQRPGRGLEWIGRIDPLQGATEYNPVFQGRLSITADTAKNQVSLQLSSMTTEDTAVYYCARYHYAQSHFDAWGQGTLVTVSS VL: RIVMTQSPGSLAVSVGESVSINCKSSQSVTNDVTWYQWKPGEAPKVLITYASIRYSGVPARFSGSGYGTDFTLTINNLQAEDVGDYFCQQDYASPFTFGQGTKLEIK | 0.49 nM | –
scFv-Fc-VTQ2202 (scFv-VTQ2202-HLλcap-GS18-MOUSE IgG2A-LALAPG-Fc) (Fc fusion) scFv: EVQLQQSGAELVKPGASVKLSCTASGFNIKSSFIHWLKQRPEQGLEWIGRIDPAFGATEYNPAFQGKVTITADTSSNTAYLQLSSLTSEDTAVYYCARYHYAASHFDAWGQGTTLTVSSGSTSGGGSGGGSGGGGSSRIVMNQTPKFLPISAGDRVIITCKSSQSVTNDLTWYQQKPGQSPKVLIHYASQRYTGVPDRFTGSGYGTDFTFTISTVQAEDLAVYFCQQDYASPFTFGSGTKLTVLGPRGPTIKPCPPCKCPAPNAAGGPSVFIFPPKIKDVLMISLSPIVTCVVVDVSEDDPDVQISWFVNNVEVHTAQTQTHREDYNSTLRVVSALPIQHQDWMSGKEFKCKVNNKDLGAPIERTISKPKGSVRAPQVYVLPPPEEEMTKKQVTLTCMVTDFMPEDIYVEWTNNGKTELNYKNTEPVLDSDGSYFMYSKLRVEKKNWVERNSYSCSVVHEGLHNHHTTKSFSRTPGK | – | IC50 (read off the curve); STAT3-SEAP reporter, canine IL-31 stimulation [4]: ~0.8 nM; IC50 ratio (IC50 candidate/IC50 VTQ2101) [2]: 1 ratio
monoclonal anti-cIL-31RA antibody 28F12 (antibody, V domains shown) VH: EVQLVESDGGLAQPGRSLKLSCAASGFTFSDYYMAWVRQAPTKGLEWVATISYDGSSTYYRDSVRGRFTISRDNAKSTLYLQMDSLRSEDTATYYCARGPLTDWAPNWFAYWGQGTLVTVSS VL: DIQMTQSPASLSASLGETVTIQCQTSEDIYSGLAWYQQKPGKSPQFLIYGASRLEDGVPSRFSGSGSGTQYSLKISSMQTEDEGVYFCQQGLKYPNTFGAGTKLELK | – | IC50 ratio (IC50 candidate/IC50 VTQ2101) [5]: 5.6 ratio; IC50 (read off the curve); STAT3-SEAP reporter, canine IL-31 stimulation [6]: ~0.7 nM

Now from value to binder, other results behind:

Mean IC50 (nM) (n = 3), HEK-Blue cell-based SEAP assay [3] | Binder | other results
0.54 nM | 8D3-VH-Lv2/8D3-VL-H caninized antibody (antibody, V domains shown) VH: EVTLQESGPGLVKPSQTLSLTCVASGFSIKSSFIHWLRQRPGRGLEWIGRIDPLQGATEYNPVFQGRLSITADTAKNQVSLQLSSMTTEDTAVYYCARYHYAQSHFDAWGQGTLVTVSS VL: RIVMTQSPGSLAGSVGESVSINCKSSQSVTNDLTWYQQKPGEAPKVLITYASQRYTGVPARFSGSGYGTDFTLTINNLQAEDVGDYFCQQDYASPFTFGQGTKLEIK | –
0.44 nM | 8D3-VH-N/8D3-VL-E caninized antibody (antibody, V domains shown) VH: EVTLQESGPGLVKPSQTLSLTCVASGFSIKSSFIHWLRQRPGRGLEWIGYIDPLQGGTEYNPVFQGRISITADTAKNQVSLQLSSMTTEDTAVYYCARYYYAQSHFDAWGQGTLVTVSS VL: RIVMTQSPGSLAVSVGESVSINCKSSQSVTNDVTWYQWKPGEAPKVLITYASIRYSGVPARFSGSGYGTDFTLTINNLQAEDVGDYFCQQDYASPFTFGQGTKLEIK | –
0.41 nM | 8D3-VH-Lv2/8D3-VL-G caninized antibody (antibody, V domains shown) VH: EVTLQESGPGLVKPSQTLSLTCVASGFSIKSSFIHWLRQRPGRGLEWIGRIDPLQGATEYNPVFQGRLSITADTAKNQVSLQLSSMTTEDTAVYYCARYHYAQSHFDAWGQGTLVTVSS VL: RIVMTQSPGSLAGSVGESVSINCKSSQSVTNDLTWYQQKPGEAPKVLIHYASQRYPGVPARFSGSGYGTDFTLTINNLQAEDVGDYFCQQDYASPFTFGQGTKLEIK | –
0.44 nM | 8D3-clone7v2-VH/8D3-clone 7-VL caninized antibody (antibody, V domains shown) VH: EVTLQESGPGLVKPSQTLSLTCVASGFSIKSSFIHWLRQRPGRGLEWIGRIDPLQGGTEYNPVFQGRISITADTTKNQVSLQLSSMTTEDTAVYYCARYYYAQSHFDAWGQGTLVTVSS VL: RIVMTQSPGSLAGSAGESVSINCKSSQSVTNDLTWYQQKPGEAPKVLIHYASQRYTGVPARFSGSGYGTDFTLTINNLQAEDVGVYFCQQDYSSPFTFGQGTKLEIK | –
0.54 nM | 8D3-VH-N/8D3-VL-Ev2 caninized antibody (antibody, V domains shown) VH: EVTLQESGPGLVKPSQTLSLTCVASGFSIKSSFIHWLRQRPGRGLEWIGYIDPLQGGTEYNPVFQGRISITADTAKNQVSLQLSSMTTEDTAVYYCARYYYAQSHFDAWGQGTLVTVSS VL: RIVMTQSPGSLAGSVGESVSINCKSSQSVTNDVTWYQQKPGEAPKVLIHYASQRYSGVPARFSGSGYGTDFTLTINNLQAEDVGDYFCQQDYASPFTFGQGTKLEIK | –
